From US20130210108

B1: PP1084 protein (3-Cys peroxiredoxin of Pseudomonas putida KT2440), His-tagged, non-irradiated or gamma-irradiated (protein)
chain: MSVLVGKKAPDFTVPAVLGNGEIVDSFNLASAIKGKYGLVFFYPLDFTFVCPSELIALDNRIPDFQARNVEVIGVSIDSHFTHNAWRNTPVNNGGIGQVKYTLAADMTHEICKAYDVESEGGVAFRGAFLIDTNGVVRSQIVNDLPLGRNMDELLRLVDALQFHEEHGEVCPANWKKGDKGMNASPEGVAAYLSENAGKL
B2: PA3529 protein (2-Cys peroxiredoxin of Pseudomonas aeruginosa PAO1), His-tagged, non-irradiated or gamma/UV-irradiated (protein)
chain: MSVLVGKKAPDFNVAAVLGNGEIVESFTLSEAIKGKYGLVFFYPLDFTFVCPSELIALDHRIPEFQARNVEVIGVSIDSHFTHNAWRNTPVDKGGIGAVKYTLAADTKHEIAKAYDVESDGGVAFRGAFLIDKEGVVRSQIVNDLPLGRNMDELLRLVDALQFHEEHGEVCPANWKKGDKGMTASPEGVAKYLAENASKL

Biological target: malate dehydrogenase (MDH)

| Protein | chaperone activity against the non-irradiated group | increase rate of OD650nm of MDH heated at 43 C (holdase chaperone activity) | MDH aggregation at 43 C for 15 minutes, PaPrx:MDH 1:1 (molecular chaperone activity after UV irradiation) |
| --- | --- | --- | --- |
| B1 | Chaperone activity of Prx protein was three-fold increased by gamma irradiation at 15˜30 kGy, compared with the non-irradiated group | the lowest OD was observed at 30 kGy, indicating that chaperone activity was highest at 30 kGy |  |
| B2 | Chaperone activity of Prx protein was three-fold increased by gamma irradiation at 15˜30 kGy, compared with the non-irradiated group | the lowest OD was observed at 30 kGy, indicating that chaperone activity was highest at 30 kGy | as the UV irradiation time increased, the molecular chaperone activity increased regularly |
